From PMC6199252, “Characterization and improved properties of Glutamine synthetase from Providencia vermicola by site-directed mutagenesis” (Scientific Reports, 2018)

Biological target: the molecule itself
Test: SEC; tag-free purified protein on Superose 6 10/300 GL, 25 mM Tris-HCl pH 7.5, 150 mM NaCl; oligomer judged from the elution volume; data not shown

B1: Glutamine synthetase from Providencia vermicola (enzyme, UniProt A0AAX3RWL7 1-469, looked up)
chain: MSSEHVLSLIEEHKIKFIDLRFTDTKGKEQHITIPAHQVNEDFFEEGKMFDGSSIGGWKGINESDMVLMPDPSTAMLDPFFADPTLIIRCDILEPGTMQGYDRDPRSISQRAEDFLRSSGIADTVLFGPEPEFFIFDDIRFGNSMHSSYYHIDDIEAAWNTGTKYEGGNKGHRPGVKGGYFPVPPVDSSQDLRSAMCTTMEEMGLVVEAHHHEVATAGQNEVACRFNTMTKKADETQIYKYVVHNVAHAYGKTATFMPKPLVGDNGSGMHCHMSLSKDGINLFAGDKYGGLSEMALYYIGGIIKHARALNAFTNPTTNSYKRLVPGFEAPVMLAYSARNRSASIRIPVVASTKARRIEVRFPDPAANPYLAFAAQLMAGLDGIINKIHPGDAMDKNLYDLPPEEAKEIPTVAGSLEEALNELDKNREFLTRGGVFTNDAIDAYIELLRNDIQRVRMTPHPLEFEMYYSV
notes: Glutamine synthetase (GSI beta type, EC 6.3.1.2) of Providencia vermicola strain CGS6, cloned from genomic DNA; ORF of 1410 base pairs encoding 469 amino acids; Cloned between BamHI and XhoI of pGEX-6P-1; also called PveGS; GS; source: E. coli BL21 (DE3), pGEX-6p-1-PveGS, purified (GST Gene Fusion System, eluted from the GST tag by 3C protease); copies: 12
- stoichiometry N: 12
